Laboratory results: the nanobody polyreactivity screen of Harvey et al. (2022)

Assay: yeast display, Sf9 membrane polyspecificity reagent, FACS + sequencing; frameworks hold sequencing errors
How it was run: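 Genes from sorted yeast were amplified by colony PCR, read by MiSeq 2 × 250 sequencing and filtered on CDR length. These cells carried a synthetic nanobody library in Saccharomyces cerevisiae BJ5465 and were sorted by FACS into low and high (top ~1%) gates on anti-HA and streptavidin fluorescence. Polyreactivity is labelled according to the gate of origin.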

Row | Sequence | polyreactivity (PSR sort gate)
1 | QVQHVESGGGLVQAGGSLRLSCAASGRTFGFNAMGWYRQATGKERELVAAITYSGGRTYYADSVKGRFTISRDNAKNTVYLHMNSLKPEDTAVYFCAALTRRVKKYDYLGQGTQVTVSS | high polyreactivity
2 | QVQHVESGGGLVQAGGSLRLSCAASGRTFGYNDMGWSRQAHGKERELVATISWGGGSTYYADSVKWRFTISRDNAKNTVYLQMNSLKAEDTAVYYCNKVHFGRRHSYSGAIYGEDYWGLGTQVTVSS | high polyreactivity
3 | QVQHVESGGGLVQAGGSLRLSCAASGRTFHWYAMGWYRQAPGKERELVAAIRYSAGSTYYADSVKGRFTISRDNAKNTVYLQMNSLKPEDTAVYYCAARPPYTDSSPGERTYDYWGQGTQVTVSS | low polyreactivity
4 | QVQHVESGGGLVQAGGSLRLSCAASGRTFITYAMGWYRQGPGKERELVATISGGGGTNYADSVKGRFTISRDNAKNTVYLQMNSLKPEDTAVYYCNKRAWYVYTHFDYWGLGTQVTVSS | low polyreactivity
5 | QVQHVESGGGLVQAGGSLRLSCAASGRTFKYNAMGWYRQAPGKEWELVAVIRYSGGTTYYADSVKGRFTISRDNAKNTVYLQMNSLKPEDTAVYYCAADSWSRSVNYYYWVQGTQVTVSS | low polyreactivity
6 | QVQHVESGGGLVQAGGSLRLSCAASGRTFPAYAMGWYRQAPGKERELVAAITYDGGTTYYADSVKGRFTISRYNAKNTVYLQMNSLKPEDTAVYYCADVYDEDQYDYWGQGTQVTVSS | low polyreactivity
7 | QVQHVESGGGLVQAGGSLRLSCAASGRTFRRNAVGWYRQAPGNERELVATISRGGSTTYADSVKGRFTISRDKAKNTVYLQMNSLKPEDTAVYYCAARTSKRYSYADHDYWGQGTQVTVSS | low polyreactivity
8 | QVQHVESGGGLVQAGGSLRLSCAASGRTFTPYAMGWYRQAPGKEREFVAAISIVGRTKYADSVKGRFTISRDNAKNTVYLQMNSLKPEDTAVYYCNAQDSRDRKFYWGYTRGHWGQGTQVTVSS | low polyreactivity
9 | QVQHVESGGGLVQAGGSLRLSCAASGSIFGQYAMGWDRQSPGKERELVAAISTSGGSTYYADSVKGRFTISRDNAKYSVYLQMYSLKPEDTAVYYCNAFNYGTQTYGYWGQGTQVTVSS | high polyreactivity
10 | QVQHVESGGGLVQAGGSLRLSCAASGSIFTDYAMGWYRQAPGHDRELVAAITLGGNTNYADSVKGRFTISRDNAKHSVYLEMISLLREDTAVYDCATGGYYSAIVYGGYDVWGQGTQVTVSS | low polyreactivity
11 | QVQHVESGGGLVQAGGSLRLSCAASGSIFTGNAMGWYRQAPGKERELVAAISSSGGSTYYADSVKGRFTISRDNAKNTVYLQMNSLKPEDTAVYYCAAYNYFLQYDYWGQGTQVTVSS | low polyreactivity
12 | QVQHVESGGGLVQAGGSLRLSCAASGSIFVYYAMGGYRQAPGKERELVAAISRSGGNTYYADSVKGRFTISRDNAKNTVYLQMNSLKPEDTAVYYCAAQPYVEGTKRYYWGQGTQVTVSS | high polyreactivity
13 | QVQHVESGGGLVQAGGSLRLSCAASGSIFYIYAMGWYRQAPGKERELVASISRSGGSTYYADSVKGRFTISRDNAKNTVYLQMNSLKPEDTAVYYCAAVITFYRYPPGETYYYWGQGTQVTVSS | high polyreactivity
14 | QVQHVESGGGLVQAGGSLRLSCAASGSILDIYAMGWYRQATGKERELVAAITGGGSTNYADSVNGRFTISRDNAKNTVYLLMNSLKPEDTAVYYCAAGTYLNGGGEYWGQGTQVTVSS | low polyreactivity
15 | QVQHVESGGGLVQAGGSLRLSCAASGSILPFNAMGWYRQAPGKVRELVAAIDGSGGDTYYADSVKGRFTISRDNAKNTVYLQMNSLKAEDTAVYYCAAEYYYTSQLAKYHYGYEYWGQGTQETVSS | high polyreactivity
16 | QVQHVESGGGLVQAGGSLRLSCAASGSTFGRYAMGWYRQAPGKERELVARISWGGGSTYYADSVKGRFTISRDNAKNTVYLQMNSLKPEDSAVYYCATRVYRSAVSYDYWGQGTQVTVSS | high polyreactivity

Row | Sequence | polyreactivity (PSR sort gate)
17 | QVQHVESGGGLVQAGGSLRLSCAASGSTFRTYGMGWYRQAPGKERELVAGITRGGSTTYADSVKGRFTISRDNAKNTVYLQMNSLKPEDTAVYYCNAGYVRVRAHNYDYWGQGTQVTVSS | high polyreactivity
18 | QVQHVESGGGLVQAGGSLRLSCAASGSTFSQYGMGWYRQAPGKEREFVAGISGSGGRTYYADSVKGRFTSSRDNAKNTVYLQMNSLKPEDTAVYYCAAETVYKWWYDYYYWGQGTQVTVSS | high polyreactivity
19 | QVQHVESGGGLVQAGGSLRLSCAASGSTFSYKVMGWYRQAPGKERELVAAISQSGGSTYYADSVKGRFTISRDNAKNTVYLHMNSLKPEDTAVYYCAAERRYYYGWGSFDYWGQGTQVTVSS | low polyreactivity
20 | QVQHVESGGGLVQAGGSLRLSCAASGSTIRYYTMGWYRQPPGKERELVAAITYSGGSTYYADSVKGRFTISRDNAKNTVYLQKNSLKPEDTAVYYCAKRWSQPKYDYWGQGTQVTVSS | high polyreactivity
21 | QVQHVESGGGLVQAGGSLRLSCAASGSTIYWYAMGWYRQAPGKERELVAAISLSGGSTYYADSVKGRFTISRDNAKNTVYLQMNSLKPEDTAVYYCAARTSYYVYRHPSGRYDYWGQGTQVSVSS | low polyreactivity
22 | QVQHVESGGGLVQAGGSLRLSCAASGSTSPGYAMGWSRQAPGKERELVAAITFRGTRTYYADSVKGRFTISRDNAKNTVYLQMNSQKPEDTAVYYCNVVGYGPNRGRVDYWGQGTQVTVSS | high polyreactivity
23 | QVQHVESGGGLVQAGGSLRLSCAASGYISVGYAMGWSRQAPGKERELVAAITESGGSTYYADSVKGRFTISRDNAKNTVYLQMNSLKPEDTAVYYCAADVIYEDRMDYWGQGTQVTVSS | low polyreactivity
24 | QVQHVESGGGLVQAGGSLRLSCAAYGFTFVRYAKGWYRQAPGKEREFVASISARGGNTFYADSVKGRFTISRDNAKNTVFLQMNSLKPEDTAVYYCAKRGPYGTGYGYWGQGTQVTVSS | high polyreactivity
25 | QVQHVESGGGLVQAGGSLRLSCAAYYAMGWYRQAPGKERELVAAISSTGRTNYADSVKGRFTISRDNAKNTVYLQMNSLKPEDTAVYYCNAGDPSGMDYWGQGTQVTVSS | low polyreactivity
26 | QVQHVESGGGLVQAGGSLRLSCASSGSTFWAYAMGWYRLAPGKERELVATITGSVGGTYYADSVKGRFTISRDNAKNTVYLQMNSLKPEDTAVYYCATDAYVKGVYEISEDRVDYWGQGTQVTVSS | low polyreactivity
27 | QVQHVESGGGLVQAGGSLRLSCDASGLTISWYAMGWYRQAPGKEREMVAAISKRGGSTYYADSVKGRFTISRDNAKNTVYLQMNSLKPEDTAVYYCNARSPYTGWTLDYWGQGTQVTVSS | high polyreactivity
28 | QVQHVESGGGLVQAGGSLRLSCDASGRIFAWYAMGWYRHAPGKERELVASISSGGRTNYADSVKGRFTISRDIAKNTVYLQMNSLKPVDTAVYYCNVAIVWPWYGRWFQEYDYWGQGTQVTVSS | low polyreactivity
29 | QVQHVESGGGLVQAGGSLRLSCPASGSIIYYNTMGWYRQAPGKERELVAGISWGGGRTYYADSVKGRFTISRDNAKNTVYLQMNSLKPEDTAVYYCNAVSKYDYGYWGQGTQVTVSS | high polyreactivity
30 | QVQHVESGGGLVQAGGSLRLSSAASGRIFSWNAMVWYRQAPGKERELVAAITNGGGTYYADSVKGRFTISRDNAKNTVYLQMNSLKPEDTAVYYCNAYRRKLWYPTGMYWGQGTQVTVSS | high polyreactivity
31 | QVQHVESGGGLVQAGGSLRLSSAASGSIFSYNAMGWYRQSPGKERELVAAIRASGGDTYYADSVKGRFTISRDNAKNTVYLQMNSLKPEDTAVYYCAARTYSHHYASHGYWGQGTQVTVSS | low polyreactivity
32 | QVQHVESGGGLVQAGGSLRLTCAATGSTFRDNAMRWYRQAPGKERELVAAIRIGGDGTYYADSVKGRFTISRDNAKNTVYLQMNSLKPEDTAVYYCAVDTEKGWRMYYWGQGTQVTVSS | low polyreactivity
